Experimental data: article PMC3879539, “Control of KirBac3.1 Potassium Channel Gating at the Interface between Cytoplasmic Domains*” (The Journal of Biological Chemistry, 2013)

Target: the molecule itself
Test: crystal structure; purified channel in 14 mM HEGA-10, 6 mg/ml; crystallised in 10% glycerol, 90 mM HEPES pH 7, 20% PEG-400, 5% PEG-4000, 2.5% PEG-8000, 10 mM spermidine, 20 °C; space group P4212, one molecule in the asymmetric unit; 2.46 Å

B1: KirBac3.1 S129R/S205L (natural protein, Magnetospirillum magnetotacticum)
chain: MTGGMKPPARKPRILNSDGSSNITRLGLEKRGWLDDHYHDLLTVSWPVFITLITGLYLVTNALFALAYLACGDVIENARPGSFTDAFFFSVQTMATIGYGKLIPIGPLANTLVTLEALCGMLGLAVAARLIYARFTRPTAGVLFSSRMVISDFEGKPTLMMRLANLRIEQIIEADVHLVLVRSEISQEGMVFRRFHDLTLTRSRLPIFSLSWTVMHPIDHHSPIYGETDETLRNSHSEFLVLFTGHHEAFAQNVHARHAYSCDEIIWGGHFVDVFTTLPDGRRALDLGKFHEIAQ
notes: KirBac3.1, inwardly rectifying potassium (Kir) channel homolog from Magnetospirillum magnetotacticum; the final model contains 283 of 301 residues; The tetramer arises from crystallographic symmetry (one molecule in the asymmetric unit, space group P4212); also called S129R/S205L double mutant; S129R/S205L mutant channel; source: size exclusion column, detergent exchanged to HEGA-10
B1: binds.
